Assay [1] has as its target T1, Aβ monomers on the SPR chip: biotinylated Aβ 11–28 (also: biotin, position not given here).
T1 chain: EVHHQKLVFFAEDVGSNK
Nature of the assay: SPR. In general terms: SPR reads the build-up and loss of mass on a sensor chip optically.

The target in assay [2] is Aβ oligomers: soluble prefibrillar aggregates of biotinylated Aβ(1–42) (biotin (position not given)). Put plainly: SPR.

Where no end group is shown, it is not given here.

Chain of Aβ oligomers: soluble prefibrillar aggregates of biotinylated Aβ(1–42) (biotin (position not given)) (P05067 672-713): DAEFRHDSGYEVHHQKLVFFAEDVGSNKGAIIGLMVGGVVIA

B1: Crenezumab, fully humanized anti-Aβ monoclonal IgG4 (antibody, V domains shown)
VH: EVQLVESGGGLVQPGGSLRLSCAASGFTFSSYGMSWVRQAPGKGLELVASINSNGGSTYYPDSVKGRFTISRDNAKNSLYLQMNSLRAEDTAVYYCASGDYWGQGTTVTVSS
VL: DIVMTQSPLSLPVTPGEPASISCRSSQSLVYSNGDTYLHWYLQKPGQSPQLLIYKVSNRFSGVPDRFSGSGSGTDFTLKISRVEAEDVGVYYCSQSTHVPWTFGQGTKVEIK
By Kd is commonly meant a measure of binding affinity in units of concentration. The low end stands for tighter binding, the high end for weaker binding. For B1, the values for the Kd in assay [1] and in assay [2] were 3.2 nM and 0.42 nM, respectively.

(Values after article PMC5171940 (2016).)
